We go through six substances from publication PMC11239674.

Substitutions are numbered along the chain they refer to.

Holding throughout (assay): MST
What all share (details): 25 mM Tris-HCl pH 8.0, 150 mM NaCl (150 mM LiCl for Sc1 LiCl), 1 mM DTT, 0.1 mg/ml BSA; 20 nM Cy5-RNA; about 2 min incubation; temperature not stated; low values mean tight binding

In data set [1] the target is T1, AtGRP7StoG S132G;S139G (Arabidopsis thaliana) (UniProt Q03250).
T1 sequence: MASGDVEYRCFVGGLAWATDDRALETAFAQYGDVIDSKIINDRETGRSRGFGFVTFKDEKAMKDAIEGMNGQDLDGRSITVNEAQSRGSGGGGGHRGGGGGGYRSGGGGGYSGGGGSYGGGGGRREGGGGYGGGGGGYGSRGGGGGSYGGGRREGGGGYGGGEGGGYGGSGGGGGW

Data set [2] addresses T2, AtGRP7YtoE Y103E;Y111E;Y118E;Y131E;Y138E;Y148E;Y159E;Y167E (Arabidopsis thaliana) (UniProt Q03250).
T2 sequence: T1 sequence with Y103E, Y111E, Y118E, Y131E, G132S, Y138E, G139S, Y148E, Y159E, Y167E

The target in a further data set is T3, BnGRP7 (Brassica napus) (UniProt A0A078J5Z4).
T3 sequence: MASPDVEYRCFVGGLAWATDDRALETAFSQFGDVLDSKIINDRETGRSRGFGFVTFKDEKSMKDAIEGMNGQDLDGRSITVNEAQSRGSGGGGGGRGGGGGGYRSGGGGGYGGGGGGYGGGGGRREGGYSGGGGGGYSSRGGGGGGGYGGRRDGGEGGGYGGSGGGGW

The target in data set [3] is T4, AtGRP7YtoG Y103G;Y111G;Y118G;Y131G;Y138G;Y148G;Y159G;Y167G (Arabidopsis thaliana) (UniProt Q03250).
T4 sequence: T1 sequence with Y103G, Y111G, Y118G, Y131G, G132S, Y138G, G139S, Y148G, Y159G, Y167G

Data set [4] deals with T5, AtGRP7StoE S132E;S139E (Arabidopsis thaliana) (UniProt Q03250).
T5 sequence: T1 sequence with G132E, G139E

In data set [5] the target is T6, AtBnGRP7 (Arabidopsis thaliana / Brassica napus chimera) (UniProt Q03250).
T6 sequence: T3 sequence with P4G, S29A, F31Y, L35I, S61A

In data set [6] the target is T7, AtGRP7 (Arabidopsis thaliana) (UniProt Q03250).
T7 sequence: T1 sequence with G132S, G139S

The target of data set [7] is T8, AtGRP7short (Arabidopsis thaliana) (UniProt Q03250).
T8 sequence: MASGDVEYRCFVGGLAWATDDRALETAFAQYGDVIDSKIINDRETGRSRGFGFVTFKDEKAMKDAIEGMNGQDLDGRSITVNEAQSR

A word on the Kd: it is the equilibrium constant for the complex coming apart. As to AtCOR15A, the Kd in data set [1] turned out to be 2230 nM; in data set [2], 23400 nM; with BnGRP7 (Brassica napus), 323 nM; in data set [3], 3750 nM; in data set [4] it was 738 nM; in data set [5], 741 nM. This substance came in with a Kd in data set [6] of 224 nM.
Take “GGAUGGCGAUGUCUUUCUCAGGAGCUGUUCUCACUGGUAUGGCUUCUUCUUUCCACAGCGGAGCCAAGCAGAGCAGCUUCGGCGCUGUCAGAGUCGGCCAGAAAACUCAGUUCGUCGUCGUUUCUCAACGCAAGAAGUCGUUGAUCUACGCCGCUAAAGGUGACGGCAACAUCCUCGAUGACCUCAACGAGGCCACAAAGAAAGCUUCAGAUUUCGUGACGGAUAAAACAAAAGAGGCAUUAGCAGAUGGUGAGAAAGCGAAAGACUACGUUGUUGAAAAAAACAGUGAAACCGCAGAUACAUUGGGUAAAGAAGCUGAGAAAGCUGCGGCGUAUGUGGAGGAGAAAGGAAAAGAAGCCGCAAACAAGGCGGCAGAGUUCGCGGAGGGUAAAGCAGGAGAGGCUAAGGAUGCCACAAAGUAG [AtCOR15A]”: the Kd was 2300 nM in data set [1]; 153 nM with BnGRP7 (Brassica napus); 2700 nM in data set [3]; 2470 nM in data set [4]; 548 nM in data set [5]; 62 nM in data set [6].
In the case of “GGAUGUCUGAAGUUGAGUACCGGUGCUUUGUCGGCGGCCUUGCCUGGGCCACCAAUGAUGAAGAUCUUCAAAGGACGUUCUCACAGUUCGGCGACGUUAUCGAUUCUAAGAUCAUUAACGACCGCGAGAGUGGAAGAUCAAGGGGAUUCGGAUUCGUCACCUUCAAGGACGAGAAAGCCAUGAGGGAUGCGAUUGAAGAGAUGAACGGUAAAGAGCUCGAUGGACGUGUCAUCACCGUGAACGAGGCUCAGUCGAGAGGUAGCGGCGGUGGCGGAGGAGGCCGUGGUGGAAGCGGUGGUGGUUACCGCAGCGGAGGCGGUGGUGGAUACUCAGGAGGCGGUGGCGGCGGAUACUCAGGAGGAGGCGGUGGUGGUUACGAGAGACGUAGCGGAGGUUACGGAUCUGGUGGAGGCGGUGGUGGCCGAGGAUACGGUGGUGGUGGACGCCGUGAGGGAGGUGGCUACGGAGGCGGUGAUGGUGGAAGUUACGGAGGCGGUGGUGGCGGCUGGUAA [AtGRP8]”, the Kd in data set [1] came to 493 nM; in data set [2], 2790 nM; in the data set with BnGRP7 (Brassica napus), 9160 nM; in data set [3] it was 381 nM; in data set [4], 937 nM; in data set [5], 135 nM. Besides, the Kd in data set [6] is 177 nM.
As to “GGAUUUGCGCAUUAAACCAAAAAGUGUCACGUGAUAUGUCCCCAACCACUACGAAUUUUAACUACAGAUUUAACCAUGGUUAAACCAGAAUUCACGUAAACCGACUCUAAACCUAGAAAAUAUCUAAACCUUGGUUAAUAUCUCAGCCCCCUUAUAAAUAACGAGACUUCGUCUACAUCGUUCUACACAUCUCACUGCUCACUACUCUCACUGUAAUCCCUUAGAUCUUCUUUUCAAAUUUCAAUGGCGUCCGGUGAUGUUGAGUAUCGGUGCUUCGUUGGAGGUCUAGCAUGGGCCACUGAUGACAGAGCUCUUGAGACUGCCUUCGCUCAAUACGGCGACGUUAUUGAUUCCAAGGUCUGUUACACGCCGAGAUCGGACUCCGAGUGAUAUCGAUGAUCUCAUCCUCGACGGAUCUGUUCCGAUCUUGUGUUUCUCUGUUACUUGAUUCGAUUACUCUGUUACUAUUCUCGUUCUUUGUUACUACUACUACUACUACUGUUACUUGUAUUUUCCCAAAUCGGUACGUUCAUCUUCCUGCUUCUGUGAGCCCGGAGAUCGAUCGGAUUUUUUUGUAUUUUGUAUAUUUGUUGUAGAUCUAAAUGCUUUUGUUCAGUUUUGUUGGAUUGUUUUGCUGAUCUGGUUUUUGUAUUAUUUGGAUAACAGAUCAUUAACGAUCGUGAGACUGGAAGAUCAAGGGGAUUCGGAUUCGUCACCUUCAAGGAUGAGAAAGCCAUGAAGGAUGCGAUUGAGGGAAUGAACGGACAAGAUCUCGAUGGCCGUAGCAUCACUGUUAACGAGGCUCAGUCACGAGGAAGCGGUGGCGGCGGAGGCCACCGUGGAGGUGGUGGCGGUGGAUACCGCAGCGGCGGUGGUGGAGGUUACUCCGGUGGAGGUGGUAGCUACGGAGGUGGCGGCGGUAGACGCGAGGGUGGAGGAGGAUACAGCGGCGGCGGCGGCGGUUACUCCUCAAGAGGUGGUGGUGGCGGAAGCUACGGUGGUGGAAGACGUGAGGGAGGAGGAGGAUACGGUGGUGGUGAAGGAGGAGGUUACGGAGGAAGCGGUGGUGGUGGAGGAUGGUAAUUCCUUUAAUUAGGUUUGGGAUUACCAAUGAAUGUUCUCUCUCUCGCUUGUUAUGCUUCUACUUGGUUUUGUGUGUUCUCUAUUUUGUUCUGGUUCUGCUUUAGAUUUGAUGUAACAGUUCGUGAUUAGGUAUUUUGGUAUCUGGAAACGUAAUGUUAAGUCACUUGUCAUUCUCUAAAUAACAAAUUUCUUCGGAGAUAUUAUCUCUGUUGAUUGAUUCUAUCAUCUAAAUUUCGGAAAUGCUAAUCGGAUACCGGAAUGGUGCCUUUGUUACGAUUGAGUUACUUACAUCACUGAUACAACAAUGAAGUACUUACUGAUUAUCUUUAUACCAUUCACCACACUACCUUUGAUAUUCAACAAUGAAGUAGAAACCUAUUUGGUUCAUUCGCA [AtGRP7]”, the Kd in data set [1] was 606 nM; in data set [2], 21300 nM; with BnGRP7 (Brassica napus), 16200 nM; in data set [3] it was 19300 nM; in data set [4], 1790 nM; in data set [5] it was 172 nM. In data set [6], this substance yielded a Kd of 364 nM.
On to “GGCUCGAAACGAGGAGAAAAAAUCAUUAGUUAUCGAAAAUGCUCACAUGAUGUGGGCCUAACCACUAACCCAAUUAACCACACAUCUUAAUCAGAGUAAGUUGAAACAAAUCUUUCAGCAAACCCUAGAAAACAUGUUUAACCCUAGUUAUUACGUCACACCUGUUCUAUAAAUUAAGGCUGCGUCUUAUCACCUCAAAUCACAUAAGUCUCUCUCUUACAUUUUGAAACCCUAAUUUCUCUUCUUUUCCCCAAAAAAAAAUGUCUGAAGUUGAGUACCGGUGCUUUGUCGGCGGCCUUGCCUGGGCCACCAAUGAUGAAGAUCUUCAAAGGACGUUCUCACAGUUCGGCGACGUUAUCGAUUCUAAGGUCUGUUACACGAGAGAUCGGUCUCCCGGAUCGAGCCGAUUCCGAUGAUUCUGAUCCUCGACGGAUCUGAUUCCGAUCUGUUUCUCUGUUACUUGAUUCGAUUACUGUUACUAUGUUCUCUCUCGUUCUUUGUUACUGUUACUUAAUUUGUCCCAUCGGUACGUUCAUCUUCCUGCUUCUAUGAGCUCGGAGAUCGAUCGAUUUUUGCUUUAUAUUCAUCGCUUUGUUUUAUAUUCCUUCCACGAUUGUUUUUGCUGAUGUGUAUGAUUUUGUUUGUUUACAGAUCAUUAACGACCGCGAGAGUGGAAGAUCAAGGGGAUUCGGAUUCGUCACCUUCAAGGACGAGAAAGCCAUGAGGGAUGCGAUUGAAGAGAUGAACGGUAAAGAGCUCGAUGGACGUGUCAUCACCGUGAACGAGGCUCAGUCGAGAGGUAGCGGCGGUGGCGGAGGAGGCCGUGGUGGAAGCGGUGGUGGUUACCGCAGCGGAGGCGGUGGUGGAUACUCAGGAGGCGGUGGCGGCGGAUACUCAGGAGGAGGCGGUGGUGGUUACGAGAGACGUAGCGGAGGUUACGGAUCUGGUGGAGGCGGUGGUGGCCGAGGAUACGGUGGUGGUGGACGCCGUGAGGGAGGUGGCUACGGAGGCGGUGAUGGUGGAAGUUACGGAGGCGGUGGUGGCGGCUGGUAAUCAAAGAUAGAGUUGUUUGCGUGCUGCUGCUCUGUUUUUGGUUUAGAUUUGGUUUUGUGUCACCACUUCUGGUUUGGUUAUCGUUCGUUUGGUUUACUUUUUUGAUGAAACAGUUUCGUUUAAGUCUUCUUUGUCUGGAACGAAAUGUUAAUUCGCGUGUUGUUUACUAAAUUUAUAACGUUUCCUUUUAACCAGAUUCGAGAUUUUCCCUCAAAUAAUUUAUCUUGUUAGACACAUGUAUUUAAUCGAACAGCAGCUAAAGGAUUCAAAUGAUUUUCUUAUCAAUAAUUACUAUAGUUUGAAAUUGAUUAGUUCUUUAACUUUUGACCUACCAAUA [AtGRP8]”, for which the Kd in data set [1] was found to be 1370 nM; with BnGRP7 (Brassica napus), 502 nM; in data set [3], 3390 nM; in data set [4], 923 nM; in data set [5] it was 312 nM; in data set [6] it was 156 nM.
Consider UGGAGAAGCAGGGCACGUGCA [miR164], for which the values for the Kd (in the data set with BnGRP7 (Brassica napus); in data set [7]; in data set [6]) were 21 nM, 5930 nM and 42 nM, respectively.
